Experimental data: the RNAGym collection of RNA variant scans (doi:10.1073/pnas.2313332121)

B1: TPR t1 (parent)
chain: GACCAAUCUGCCCUCAGAGCUCGAGAACAUCUUCGGAUGCAGAGGAGGCAGGCUUCGGUGGCGCGAUAGCGCCAACGUCCUCAACCUCCAAUGCAUCCCACCACAUGAUGAUGCCUGAAGAGCCUUGGUUUUUUG

Variants of: B1
Assay: polymerase ribozyme fitness, log enrichment relative to wild type (log ratio); higher = more active; in vitro selection for triplet polymerase activity
Procedure, shortened: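 Streptavidin-bead capture of gel-excised extended constructs, followed by RT-PCR, closed a single triplicate in vitro selection round. That round began by annealing PCR-built, transcribed mutant libraries of each subunit of a heterodimeric triplet polymerase ribozyme with a biotinylated primer, the partner subunit and triplets, then incubating them frozen at −7 °C. After Illumina sequencing of inputs and outputs, genotypes needed ≥10 input reads and ≥1 read per output. Fitness is the base-2 logarithm of genotype enrichment over wild-type enrichment, using inverse-variance-weighted replicate averages.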

Compared with G45A U59A A83C C114G G122C, C102U U132A is higher in “polymerase ribozyme fitness (log ratio)” value: -4.2 for the first, -1.83 for the second.

First: G60A G93U U112C G113U
Second: A46U A100U
The “polymerase ribozyme fitness (log ratio)” value of the first is lower: -5.49 for the first, -1.69 for the second.

First: A41U G42C C114A C124A
Second: C104G
The “polymerase ribozyme fitness (log ratio)” value of the first is higher: -3.31 for the first, -6.88 for the second.

First: C11U C82A
Second: G44U C114A U116G
The “polymerase ribozyme fitness (log ratio)” value of the first is higher: -1.02 for the first, -4.56 for the second.

First: A37C C76G
Second: C56U G57U G69U C114U C115A
The “polymerase ribozyme fitness (log ratio)” value of the first is higher: -0.251 for the first, -4.53 for the second.

First: G17U C73G C124G G128C
Second: G47C C53U C124A
The “polymerase ribozyme fitness (log ratio)” value of the first is lower: -2.67 for the first, 0.271 for the second.

Going from A95C G128C to A46G C88U C97A, the “polymerase ribozyme fitness (log ratio)” value falls from -2.12 to -5.17.

First: C11U G39U C102A C104U A111G
Second: A5C U7A C8A C80U
The “polymerase ribozyme fitness (log ratio)” value of the first is lower: -1.71 for the first, -1.09 for the second.

Compared with C101A A105C A118U, A26C is lower in “polymerase ribozyme fitness (log ratio)” value: -4.79 for the first, -6.07 for the second.

Compared with U54A G60C G117C, G48U C53G G69U is higher in “polymerase ribozyme fitness (log ratio)” value: -3.99 for the first, -0.128 for the second.

Compared with C8G C56A, A46U C53A is lower in “polymerase ribozyme fitness (log ratio)” value: 0.399 for the first, -0.885 for the second.

First: A111C A119U U131C
Second: C28U C82A
The “polymerase ribozyme fitness (log ratio)” value of the first is higher: 0.0159 for the first, -2.3 for the second.

Going from G39C U116C to C8U G10C C13A C34A C40U C98G A103C, the “polymerase ribozyme fitness (log ratio)” value falls from -2.01 to -3.92.

Compared with G52U C123A, C70U U130A is lower in “polymerase ribozyme fitness (log ratio)” value: -0.303 for the first, -1.04 for the second.

First: A74U C88U U116A
Second: C20U G60A C124U
The “polymerase ribozyme fitness (log ratio)” value of the first is lower: -3.69 for the first, 0.188 for the second.

Compared with A46G C85G, G42U A43C C73U G93A is higher in “polymerase ribozyme fitness (log ratio)” value: -2.68 for the first, -2.39 for the second.

Compared with C56U C72G, G42A C56G C64U G122A is lower in “polymerase ribozyme fitness (log ratio)” value: -0.66 for the first, -3.76 for the second.

First: U55G C62U C102A
Second: C34U C72U A105G G120A
The “polymerase ribozyme fitness (log ratio)” value of the first is higher: -1.77 for the first, -6.01 for the second.

Compared with G23A C82G, A6U C8A A37G G61U C98A is higher in “polymerase ribozyme fitness (log ratio)” value: -5.43 for the first, -3.75 for the second.

Compared with A26U G69A U78G U106A, C3U C28A A41G C56U G120C is lower in “polymerase ribozyme fitness (log ratio)” value: -4.44 for the first, -5.25 for the second.

First: C28U A121C
Second: G10A G61A
The “polymerase ribozyme fitness (log ratio)” value of the first is lower: -0.0887 for the first, 0.248 for the second.

Going from G128U U130C to C20U C22A, the “polymerase ribozyme fitness (log ratio)” value falls from 0.0266 to -3.94.

Going from A68C C124A to G19U G47C C97U C114G, the “polymerase ribozyme fitness (log ratio)” value rises from -5.4 to -2.97.

First: C20A G48A C49G G61A U87G A90C
Second: A46G A108G G117A
The “polymerase ribozyme fitness (log ratio)” value of the first is lower: -5.02 for the first, -4.03 for the second.

Going from A24G A119U to A27G C89A, the “polymerase ribozyme fitness (log ratio)” value falls from -2.54 to -3.54.

Going from A50U C72U C73G G122A C124U to C12G G69C C72U A90U U116G, the “polymerase ribozyme fitness (log ratio)” value falls from -0.982 to -6.29.

Compared with C73A G127U, G19U C82A is lower in “polymerase ribozyme fitness (log ratio)” value: -0.602 for the first, -3.28 for the second.

Compared with G47U U55C C56A C73G, G52C G120C is higher in “polymerase ribozyme fitness (log ratio)” value: -4.04 for the first, -0.0985 for the second.

C13G U54G and G110A C115A are within 0.2 log units of each other in “polymerase ribozyme fitness (log ratio)” value: -1.83 for the first, -1.87 for the second.

Going from C104A C124U U130A to C56U A83C U106A A118U C123G, the “polymerase ribozyme fitness (log ratio)” value rises from -3.43 to 1.63.

Compared with U7G A66C G71U, G45U A50U G117U is lower in “polymerase ribozyme fitness (log ratio)” value: -1.24 for the first, -4.81 for the second.

First: G60A U78C C97G
Second: G57U C62G U112A
The “polymerase ribozyme fitness (log ratio)” value of the first is lower: -4.55 for the first, -2.56 for the second.

G63A A75G G122A G127U and C13A A18G are within 0.2 log units of each other in “polymerase ribozyme fitness (log ratio)” value: -3.17 for the first, -3.1 for the second.

Going from C8U G69A to U9C C11U G47C U96G, the “polymerase ribozyme fitness (log ratio)” value falls from -1.72 to -3.05.

First: C34U C72A C123A
Second: U9G A18U C40U
The “polymerase ribozyme fitness (log ratio)” value of the first is lower: -5.4 for the first, -0.788 for the second.

Going from A46G U54G C62G U78C C123U to A83C A111U, the “polymerase ribozyme fitness (log ratio)” value rises from -4.11 to -3.57.

Compared with A29G U38G C73G C82U A100G C115G, A18C C20U C114A is higher in “polymerase ribozyme fitness (log ratio)” value: -7.25 for the first, 0.845 for the second.

Going from C28U G45A C49G C72U G122A to C8G C89U, the “polymerase ribozyme fitness (log ratio)” value rises from -4.63 to -0.514.

First: C11U C73U C114A C123U
Second: G52U G93U G110U
The “polymerase ribozyme fitness (log ratio)” value of the first is higher: -2.7 for the first, -3.97 for the second.

Compared with U14G A43G G52A C53A G77C A100U, G42C C62U is higher in “polymerase ribozyme fitness (log ratio)” value: -5.52 for the first, -2.97 for the second.

Going from A41C C80A G107A G117U U129C to U7C C12A C13A G17A A27C C115U, the “polymerase ribozyme fitness (log ratio)” value rises from -7.66 to -5.21.

Compared with C8G C102U U106C, A2U C72A is lower in “polymerase ribozyme fitness (log ratio)” value: -0.803 for the first, -2.16 for the second.
